Results: patent US11332546B2, “Protease inhibitory antibodies and methods of use thereof” (The Regents of The University of California, priority 2019, dated 2022)
Where a chain is given by its changes, count along the chain named.

T1: BACE2 (Homo sapiens, UniProt Q9Y5Z0)
T1 sequence (Q9Y5Z0 63-518): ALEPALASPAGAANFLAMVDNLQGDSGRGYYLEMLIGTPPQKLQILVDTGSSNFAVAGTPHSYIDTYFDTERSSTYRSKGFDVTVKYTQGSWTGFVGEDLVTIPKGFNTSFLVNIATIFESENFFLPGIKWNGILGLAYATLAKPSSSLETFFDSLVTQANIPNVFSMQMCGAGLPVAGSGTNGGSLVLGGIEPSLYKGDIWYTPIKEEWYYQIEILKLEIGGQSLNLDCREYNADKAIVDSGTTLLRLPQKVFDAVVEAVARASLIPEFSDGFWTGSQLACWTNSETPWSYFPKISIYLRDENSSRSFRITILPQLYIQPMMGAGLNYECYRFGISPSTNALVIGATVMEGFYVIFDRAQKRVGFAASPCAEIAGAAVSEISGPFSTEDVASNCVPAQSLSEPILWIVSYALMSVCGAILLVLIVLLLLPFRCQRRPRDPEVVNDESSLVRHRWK

B1: Fab 2B12: anti-MMP-14 antibody clone; VL SEQ ID NO:90, VH SEQ ID NO:5, CDR-H3 SEQ ID NO:8 (antibody, V domains shown)
VH: EVQLVESGGGLVQPGGSLRLSCAASGFNIYYSSMHWVRQAPGKGLEWVAYIYSSSSYTYYADSVKGRFTISADTSKNTAYLQMNSLRAEDTAVYYCARDCCSCVFSQSAGITLACVYVMDYWGQGTLVTVSSAS
VL: DIQMTQSPSSLSASVGDRVTITCRASQSVSSAVAWYQQKPGKAPKLLIYSASSLYSGVPSRFSGSRSGTDFTLTISSLQPEDFATYYCQQWGPHYAPITFGQGTKVEIKR
B2: Fab 1A5: anti-MMP-14 antibody clone; VL SEQ ID NO:92, VH SEQ ID NO:9, CDR-H3 SEQ ID NO:12 (antibody, V domains shown)
VH: EVQLVESGGGLVQPGGSLRLSCAASGFNLYYYYMHWVRQAPGKGLEWVAYIYPYSGSTYYADSVKGRFTISADTSKNTAYLQMNSLRAEDTAVYYCARLDFLMRDIYYDLGGGALGWLIKYAMDYWGQGTLVTVSSAS
VL: DIQMTQSPSSLSASVGDRVTITCRASQSVSSAVAWYQQKPGKAPKLLIYSASSLYSGVPSRFSGSRSGTDFTLTISSLQPEDFATYYCQQYSGPYPITFGQGTKVEIKR
B3: IgG B3B12: anti-BACE1 inhibitory Fab B3B12 converted into IgG format (antibody, V domains shown)
VH: EVQLVESGGGLVQPGGSLRLSCAASGFNIPYSSMHWVRQAPGKGLEWVASISSYSSSTSYADSVKGRFTISADTSKNTAYLQMNSLRAEDTAVYYCARYICGHRWRDFDMWRARTGVNYAMDYWGQGTLVTVSSAS
VL: DIQMTQSPSSLSASVGDRVTITCRASQSVGTYLNWYQQKPGKAPKLLIYATSNLRSGVPSRFSGSGSGTDFTLTISSLQPEDFATYYCQQSYSIPRFTFGPGTKLEIKR
B4: Fab B2B2: anti-BACE-1 antibody clone; VL SEQ ID NO:44, VH SEQ ID NO:46, CDR-H3 SEQ ID NO:49 (antibody, V domains shown)
VH: EVQLVESGGGLVQPGGSLRLSCAASGFNISSYYMHWVRQAPGKGLEWVASIYSSYGYTYYADSVKGRFTISADTSKNTAYLQMNSLRAEDTAVYYCARYWGYYAWFGSHPWAYGAFDYWGQGTLVTVSSAS
VL: DIQMTQSPSSLSASVGDRVTITCRASQSVSSAVAWYQQKPGKAPKLLIYSASSLYSGVPSRFSGSRSGTDFTLTISSLQPEDFATYYCQQYGYYLITFGQGTKVEIKR
B5: Fab B2B9: anti-BACE-1 antibody clone; VL SEQ ID NO:96, VH SEQ ID NO:53, CDR-H3 SEQ ID NO:56 (antibody, V domains shown)
VH: EVQLVESGGGLVQPGGSLRLSCAASGFNISYSSMHWVRQAPGKGLEWVASIYPSYSYTSYADSVKGRFTISADTSKNTAYLQMNSLRAEDTAVYYCARSSSSYYYGMDYWGQGTLVTVSSAS
VL: B4 VL with Y91S, G92S, Y94S
B6: Fab B2B3: anti-BACE-1 antibody clone; VL SEQ ID NO:102, VH SEQ ID NO:50, CDR-H3 SEQ ID NO:52 (antibody, V domains shown)
VH: EVQLVESGGGLVQPGGSLRLSCAASGFNISYSSIHWVRQAPGKGLEWVAYISSYSSSTYYADSVKGRFTISADTSKNTAYLQMNSLRAEDTAVYYCARSASGIDYWGQGTLVTVSSAS
VL: B4 VL with Y91S, Y94A, L95P, I96F
B7: Fab B1A4: anti-BACE-1 antibody clone; VL SEQ ID NO:33, VH SEQ ID NO:37, CDR-H3 SEQ ID NO:40 (antibody, V domains shown)
VH: EVQLVESGGGLVQPGGSLRLSCAASGFNISYSSIHWVRQAPGKGLEWVAYISPSSSYTSYADSVKGRFTISADTSKNTAYLQMNSLRAEDTAVYYCARHYYVSVGSGIDYWGQGTLVTVSSAS
VL: DIQMTQSPSSLSASVGDRVTITCRASQSVSSAVAWYQQKPGKAPKLLIYSASSLYSGVPSRFSGSRSGTDFTPTISSLQPEDFATYYCQQASASPYALITFGQGTKVEIKR
B8: Fab B1B3: anti-BACE-1 antibody clone; VL SEQ ID NO:104, VH SEQ ID NO:61, CDR-H3 SEQ ID NO:64 (antibody, V domains shown)
VH: EVQLVESGGGLVQPGGSLRLSCAASGFNISYYSMHWVRQAPGKGLEWVASISPYYGSTYYADSVKGRFTISADTSKNTAYLQMNSLRAEDTAVYYCARERSSCPVGWRDSRFGADGYGLEYWGQGTLVTVSSAS
VL: B1 VL with W91S, P93H, H94Y, Y95H, A96S, P97L
B9: Fab B2B5: anti-BACE-1 antibody clone; VL SEQ ID NO:100, VH SEQ ID NO:41, CDR-H3 SEQ ID NO:43 (antibody, V domains shown)
VH: EVQLVESGGGLVQPGGSLRLSCAASGFNIYYSYMHWVRQAPGKGLEWVASIYPYYGSTYYADSVKGRFTISADTSKNTAYLQMNSLRAEDTAVYYCARWHGYPPGYSYYSSFSSSGFDYWGQGTLVTVSSAS
VL: B2 VL with L73P, Y91S, S92Y, G93F, P94S
B10: Fab B3B12: anti-BACE-1 antibody clone; VL SEQ ID NO:25, VH SEQ ID NO:29, CDR-H3 SEQ ID NO:32 (antibody, V domains shown)
VH: B3 VH
VL: B3 VL

Molecular target: T2, cdMMP-12 wt (Homo sapiens, UniProt P39900)
T2 construct: hexahistidine (C); made in house; host or cells: E. coli BL21 (pET32b, cytoplasmic)
T2 sequence (P39900 106-263): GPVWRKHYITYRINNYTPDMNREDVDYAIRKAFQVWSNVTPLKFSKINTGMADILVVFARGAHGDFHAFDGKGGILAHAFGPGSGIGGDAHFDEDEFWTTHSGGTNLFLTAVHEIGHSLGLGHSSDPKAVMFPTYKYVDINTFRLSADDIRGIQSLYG
Assay: Fibronectin proteolysis inhibition, cdMMP-12 wt (western blot)
Assay type: biochemical
Settings: 2 μM GM6001; 350 nM wt cdMMP-12, 200 nM fibronectin, 37° C.
Experimental: Inhibition tests with macromolecular substrates 10 μg/mL FITC-conjugated elastin (AnaSpec) was incubated with 7 nM cdMMP-12 D4/wt and 2-2000 nM purified Fab in 50 mM Tris-HCl, 150 mM NaCl, 5 mM CaCl2), 100 μM ZnCl2 pH 7.5. Generated fluorescent signals were measured at 12 h with λEx of 490 nm and λEm of 520 nm. […] The samples were separated on 5% non-reducing SDS-PAGE and analyzed by western blotting with anti-Fibronectin antibody (Abcam) and chemiluminescent substrate (Thermo Scientific). […] Assays without cdMMP-12s or Fabs were performed as controls.

Molecule	Fibronectin remaining after cdMMP-12 wt hydrolysis
CNC(=O)[C@H](Cc1c[nH]c2ccccc12)NC(=O)[C@@H](CC(=O)NO)CC(C)C [GM6001, reference compound]	significant amounts of fibronectin remained

System: cdMMP-9
Assay: FRET inhibition selectivity test, cdMMP-9 (Example 1)
Assay type: biochemical
Settings: Fab at 500 nM
Experimental: (§1) For inhibition tests, 1 μM Fabs were 2-fold serially diluted into protease specific assay buffer and incubated with 1-10 nM proteases for 30 min at room temperature. […] Inhibition percentages at given concentrations were calculated by comparing the initial reaction rates in the presence or absence of inhibitor. IC50 was determined as the concentration that achieved 50% inhibition, and KI values were calculated using KI=IC50/(S/Km+1). Vmax and Km at various Fab concentrations were measured to determine the inhibition type. FRET inhibition assays were also used for selectivity tests of isolated Fabs with the relevant proteases.

Molecule	Inhibition of cdMMP-9 (selectivity)
B1	did not inhibit
B2	did not inhibit

Molecular target: T1, BACE2
Assay: FRET inhibition selectivity test, BACE2
Assay type: biochemical
Settings: IgG
Experimental: as §1

Inhibition of BACE2 (selectivity)	Molecule
but not BACE2	B3

Molecular target: T3, BACE1 (Homo sapiens, UniProt P56817)
T3 construct: human β-secretase 1 (BACE1, residue 46-457); made in house; host or cells: HEK293F (secreted, protein A purified)
T3 sequence (P56817 46-457): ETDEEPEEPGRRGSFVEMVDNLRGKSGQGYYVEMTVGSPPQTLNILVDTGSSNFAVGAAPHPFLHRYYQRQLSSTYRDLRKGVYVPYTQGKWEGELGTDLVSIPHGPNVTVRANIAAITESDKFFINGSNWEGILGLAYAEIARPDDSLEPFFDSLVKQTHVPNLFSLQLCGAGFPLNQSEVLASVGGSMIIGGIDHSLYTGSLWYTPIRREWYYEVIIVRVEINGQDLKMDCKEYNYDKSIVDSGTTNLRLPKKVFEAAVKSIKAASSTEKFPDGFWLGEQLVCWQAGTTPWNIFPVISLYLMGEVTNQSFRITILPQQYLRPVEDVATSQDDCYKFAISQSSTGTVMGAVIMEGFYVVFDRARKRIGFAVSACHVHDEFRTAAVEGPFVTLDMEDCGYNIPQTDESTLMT
Assay: FRET peptide inhibition assay, BACE1 (M-2420)
Assay type: biochemical
Settings: Fab; BACE-1, FRET peptide; read-out: Inhibition Potency KI
Experimental: as §1

Ki	Molecule
87 nM	B4
120 nM	B5
100 nM	B6
41 nM	B7
210 nM	B8
77 nM	B9
23 nM	B10

Same assay, conditions: IgG format; BACE-1, FRET peptide

Inhibition Potency KI (associated IgG, in parentheses)	Molecule
35 nM	B7
13 nM	B10
13 nM	B3

Molecular target: T4, cdMMP-12 mutant D4 (Homo sapiens, UniProt P39900, A167E/A173P/A252Q/H206S/I245T/K233R/M156E/N119Q/N126H/R135E/T215V/V161I/Y113D/Y132K)
T4 construct: hexahistidine (C); made in house; host or cells: E. coli BL21, pET32b (cytoplasmic, soluble fraction)
T4 sequence (P39900 106-263 Y113D/N119Q/N126H/Y132K/R135E/M156E/V161I/A167E/A173P/H206S/T215V/K233R/I245T/A252Q): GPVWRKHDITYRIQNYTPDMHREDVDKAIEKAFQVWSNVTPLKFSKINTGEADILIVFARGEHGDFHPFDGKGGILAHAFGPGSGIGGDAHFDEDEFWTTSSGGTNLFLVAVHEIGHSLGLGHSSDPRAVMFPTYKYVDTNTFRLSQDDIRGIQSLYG
Assay: Bio-layer interferometry (BLItz) on cdMMP-12 D4
Assay type: binding
Settings: read-out: Affinity on cdMMP-12 D4
Experimental: ELISA and binding kinetics measurement Purified cdMMP-9, cdMMP-12 D4/wt, and cdMMP-14 were biotinylated by using EZ-Link Sulfo-NHS-LC kit (Thermo Fisher). On streptavidin coated ELISA plates, 5 μg/mL biotinylated cdMMPs were immobilized and incubated with two-fold serially diluted purified Fabs. Bound Fabs were detected with anti-Fab-HRP (Sigma-Aldrich), and signals were developed by TMB substrate (Thermo Scientific) and measured using a microplate reader (BioTek). In competitive ELISA, 500 nM Fabs of interest were mixed with 0.01-10 μM GM6001 or 0.8-200 μM nTIMP-2 for 30 min, then transferred to ELISA plates coated with cdMMP-12 D4/wt for incubation 15 min at room temperature. Bound Fabs were detected using anti-Fab-HRP. For bio-layer interferometry (using ForteBio BLItz), biotinylated cdMMP-12 D4/wt was loaded onto streptavidin biosensors. After washing to establish baselines, 50, 100, or 200 nM of Fabs were associated with immobilized cdMMP-12 D4/wt for 200 sec, then dissociated into 50 mM HEPES, 150 mM NaCl pH 7.5 for 120 sec. Averages of measured kon and koff values were determined for KD calculations.

Kd	Molecule
500 nM	nTIMP-1: N-terminal domain of tissue inhibitor of metalloproteinases 1, endogenous inhibitor of MMPs
290 nM	nTIMP-2: N-terminal domain of tissue inhibitor of metalloproteinases 2, endogenous inhibitor of MMPs

Molecular target: T3, BACE1
Assay: Binding kinetics by biolayer interferometry, Fabs/IgGs on BACE1
Settings: Fab, read-out: Binding Affinity KD
Experimental: Binding kinetics of produced antibodies towards associated protease targets were analyzed by using biolayer interferometry (ForteBio). For Fabs, biotinylated proteases were immobilized on streptavidin biosensors, and Fab binding to the sensors in absence of protease was monitored as backgrounds. For IgGs, protein A sensors were used and protease bindings without IgG were checked as backgrounds. kon and koff were determined for KD calculations. […] Fab in vitro stability was tested by incubating 1 μM Fab with 1 μM of the respective protease in the assay buffer for 12 hours and the samples were analyzed by SDS-PAGE.

Kd	Molecule
52 nM	B4
110 nM	B5
100 nM	B6
21 nM	B7
31 nM	B8
130 nM	B9
10 nM	B10

Same assay, conditions: IgG format

Binding Affinity KD (associated IgG, in parentheses)	Molecule
16 nM	B7
7 nM	B10
7 nM	B3
